Patent US20200024322A1 (Eli Lilly, published 2020)
Numbering of substitutions follows the chain as printed. Numbered stars: 1 amine (or outer) side, 2 acyl side, 3 side chain; on linkers, the order of the positions; unused ones are H or OH. Square brackets hold non-standard residues; d marks the D form. Side chains are listed from the residue outwards. Ends that are not written are not given here. * marks the point of attachment. C18 diacid = O=C(O)CCCCCCCCCCCCCCCCC(=O)*; αMePhe(2-F) = C[C@](N)(Cc1ccccc1F)C(=O)O; γGlu = O=C(O)[C@H](CCC(=O)[*:2])N[*:1]; αMeL = CC(C)C[C@](C)(N)C(=O)O; AEEA = NCCOCCOCC(=O)O; Aib = CC(C)(N)C(=O)O

T1: human GLP-1 receptor (GLP-1R) (human), P43220
T1 chain: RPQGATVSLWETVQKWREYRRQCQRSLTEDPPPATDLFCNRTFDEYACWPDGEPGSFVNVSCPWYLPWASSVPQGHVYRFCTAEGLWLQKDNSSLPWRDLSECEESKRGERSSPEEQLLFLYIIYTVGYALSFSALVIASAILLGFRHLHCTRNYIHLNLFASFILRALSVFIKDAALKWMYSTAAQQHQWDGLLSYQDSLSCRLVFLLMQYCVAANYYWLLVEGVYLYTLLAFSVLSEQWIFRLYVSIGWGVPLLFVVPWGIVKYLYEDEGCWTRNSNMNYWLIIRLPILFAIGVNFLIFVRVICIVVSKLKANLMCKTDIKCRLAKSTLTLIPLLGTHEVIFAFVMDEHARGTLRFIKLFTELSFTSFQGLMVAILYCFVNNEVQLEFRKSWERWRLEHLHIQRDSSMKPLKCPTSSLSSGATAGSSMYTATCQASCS

T2: human gastric inhibitory peptide receptor (GIPR) (human), P48546
T2 chain: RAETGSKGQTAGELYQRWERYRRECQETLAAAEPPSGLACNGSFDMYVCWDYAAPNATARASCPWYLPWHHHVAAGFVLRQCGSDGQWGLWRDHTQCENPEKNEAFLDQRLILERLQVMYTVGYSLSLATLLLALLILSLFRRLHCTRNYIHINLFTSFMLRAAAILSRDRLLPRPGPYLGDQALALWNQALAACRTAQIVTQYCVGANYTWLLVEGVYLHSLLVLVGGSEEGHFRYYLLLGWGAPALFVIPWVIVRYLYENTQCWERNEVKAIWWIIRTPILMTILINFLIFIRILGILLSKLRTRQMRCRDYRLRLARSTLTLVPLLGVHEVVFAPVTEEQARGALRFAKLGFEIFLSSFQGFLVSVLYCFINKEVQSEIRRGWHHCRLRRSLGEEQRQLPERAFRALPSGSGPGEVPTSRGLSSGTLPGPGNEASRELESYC

T3: human gastric inhibitory peptide receptor (GIPR) (human, UniProt P48546 22-466)
T3 sequence (looked up): T2 chain

B1: (D-Tyr)-Aib-EGTFTSDYSI-αMeL-LD-Orn-K((2-[2-(2-Amino-ethoxy)-ethoxy]-acetyl)2-(c-Glu)-CO-(CH2)18-CO2H)AQ-Aib-EFIEYLIAGGPSSG-NH2 (peptide)
peptide: XXEGTFTSDYSIXLDXKAQXEFIEYLIAGGPSSG
modifications: D-Tyr1; Aib2; αMeL13; Orn16; K17 conjugated to (2-[2-(2-Amino-ethoxy)-ethoxy]-acetyl)2-(c-Glu)-CO-(CH2)18-CO2H ('c-Glu' as printed, presumably γ-Glu); Aib20; C-terminal amide (NH2)
B2: Y-Aib-EGTFTSDYSI-αMeL-LDKK((2[2-(2-Amino-ethoxy)-ethoxy]-acetyl)2-(γ-Glu)-CO-(CH2)18-CO2H)AQ-Aib-EFIE-αMeY-LIAGGPSSGAPPPS-NH2 (peptide)
peptide: YXEGTFTSDYSIXLDKKAQXEFIEXLIAGGPSSGAPPPS
modifications: Aib2; αMeL13; K17 conjugated to (2-[2-(2-Amino-ethoxy)-ethoxy]-acetyl)2-(γ-Glu)-CO-(CH2)18-CO2H; Aib20; αMeY25; C-terminal amide (NH2)
B3: (D-Tyr)-Aib-EGTFTSDYSI-αMeL-LD-Orn-K((2-[2-(2-Amino-ethoxy)-ethoxy]-acetyl)2-(γ-Glu)-CO-(CH2)18-CO2H)AQ-Aib-DFIEYLIAGGPSSGAPPPS-NH2 (peptide)
peptide: B2 peptide with Y1X, K16X, E21D, X25Y
modifications: D-Tyr1; Aib2; αMeL13; Orn16; K17 conjugated to (2-[2-(2-Amino-ethoxy)-ethoxy]-acetyl)2-(γ-Glu)-CO-(CH2)18-CO2H; Aib20; C-terminal amide (NH2)
B4: (D-Tyr)-Aib-EGTFTSDYSI-αMeL-LD-Orn-K((2-[2-(2-Amino-ethoxy)-ethoxy]-acetyl)2-(γ-Glu)-CO-(CH2)18-CO2H)AQ-Aib-EFIE-αMeY-LIEGGPSSGAPPPS-NH2 (peptide)
peptide: B2 peptide with Y1X, K16X, A28E
modifications: D-Tyr1; Aib2; αMeL13; Orn16; K17 conjugated to (2-[2-(2-Amino-ethoxy)-ethoxy]-acetyl)2-(γ-Glu)-CO-(CH2)18-CO2H; Aib20; αMeY25; C-terminal amide (NH2)
B5: (D-Tyr)-Aib-EGTFTSDYSI-αMeL-LDKK((2-[2-(2-Amino-ethoxy)-ethoxy]-acetyl)-(γ-Glu)-CO-(CH2)18-CO2H)AQ-Aib-EFIEYLIAGGPSSGAPPPS-NH2 (peptide)
peptide: B2 peptide with Y1X, X25Y
modifications: D-Tyr1; Aib2; αMeL13; K17 conjugated to (2-[2-(2-Amino-ethoxy)-ethoxy]-acetyl)-(γ-Glu)-CO-(CH2)18-CO2H; Aib20; C-terminal amide (NH2)
B6: (D-Tyr)-Aib-EGTFTSDYSI-αMeL-LD-Orn-K((2-[2-(2-Amino-ethoxy)-ethoxy]-acetyl)2-(γ-Glu)-CO-(CH2)16-CO2H)AQ-Aib-AFIE-αMeY-LIAGGPSSGAPPPS-NH2 (peptide)
peptide: B2 peptide with Y1X, K16X, E21A
modifications: D-Tyr1; Aib2; αMeL13; Orn16; K17 conjugated to (2-[2-(2-Amino-ethoxy)-ethoxy]-acetyl)2-(γ-Glu)-CO-(CH2)16-CO2H; Aib20; αMeY25; C-terminal amide (NH2)
B7: (D-Tyr)-Aib-EGTFTSDYSI-αMeL-LD-Orn-K((2-[2-(2-Amino-ethoxy)-ethoxy]-acetyl)-(γ-Glu)-CO-(CH2)18-CO2H)AQ-Aib-EFIEYLIAGGPSSGAPPPS-NH2 (peptide)
peptide: B2 peptide with Y1X, K16X, X25Y
modifications: D-Tyr1; Aib2; αMeL13; Orn16; K17 conjugated to (2-[2-(2-Amino-ethoxy)-ethoxy]-acetyl)-(γ-Glu)-CO-(CH2)18-CO2H; Aib20; C-terminal amide (NH2)
B8: (D-Tyr)-Aib-EGTFTSDYSI-αMeL-LDKK((2-[2-(2-Amino-ethoxy)-ethoxy]-acetyl)-(γ-Glu)-CO-(CH2)18-CO2H)AQ-Aib-EFIE-αMeY-LIAGGPSSGAPPPS-NH2 (peptide)
peptide: B2 peptide with Y1X
modifications: D-Tyr1; Aib2; αMeL13; K17 conjugated to (2-[2-(2-Amino-ethoxy)-ethoxy]-acetyl)-(γ-Glu)-CO-(CH2)18-CO2H; Aib20; αMeY25; C-terminal amide (NH2)
B9: (D-Tyr)-Aib-EGTFTSDYSI-αMeL-LDKK((2-[2-(2-Amino-ethoxy)-ethoxy]-acetyl)2-(γ-Glu)-CO-(CH2)16-CO2H)AQ-Aib-EFIE-αMeY-LIAGGPSSGAPPPS-NH2 (peptide)
peptide: B2 peptide with Y1X
modifications: D-Tyr1; Aib2; αMeL13; K17 conjugated to (2-[2-(2-Amino-ethoxy)-ethoxy]-acetyl)2-(γ-Glu)-CO-(CH2)16-CO2H; Aib20; αMeY25; C-terminal amide (NH2)
B10: (D-Tyr)-Aib-EGTFTSDYSI-αMeL-LDKK((2-[2-(2-Amino-ethoxy)-ethoxy]-acetyl)2-(γ-Glu)-CO-(CH2)16-CO2H)AQ-Aib-AFIE-αMeY-LIAGGPSSGAPPPS-NH2 (peptide)
peptide: B2 peptide with Y1X, E21A
modifications: D-Tyr1; Aib2; αMeL13; K17 conjugated to (2-[2-(2-Amino-ethoxy)-ethoxy]-acetyl)2-(γ-Glu)-CO-(CH2)16-CO2H; Aib20; αMeY25; C-terminal amide (NH2)
B11: (D-Tyr)-Aib-EGTFTSDYSI-αMeL-LD-Orn-K((2-[2-(2-Amino-ethoxy)-ethoxy]-acetyl)2-(γ-Glu)-CO-(CH2)16-CO2H)AQ-Aib-EFIE-αMeY-LIAGGPSSGAPPPS-NH2 (peptide)
peptide: B2 peptide with Y1X, K16X
modifications: D-Tyr1; Aib2; αMeL13; Orn16; K17 conjugated to (2-[2-(2-Amino-ethoxy)-ethoxy]-acetyl)2-(γ-Glu)-CO-(CH2)16-CO2H; Aib20; αMeY25; C-terminal amide (NH2)
B12: (D-Tyr)-Aib-EGTFTSDYSI-αMeL-LDKK((2-[2-(2-Amino-ethoxy)-ethoxy]-acetyl)-(γ-Glu)-CO-(CH2)18-CO2H)AQ-Aib-AFIE-αMeY-LIAGGPSSGAPPPS-NH2 (peptide)
peptide: B2 peptide with Y1X, E21A
modifications: D-Tyr1; Aib2; αMeL13; K17 conjugated to (2-[2-(2-Amino-ethoxy)-ethoxy]-acetyl)-(γ-Glu)-CO-(CH2)18-CO2H; Aib20; αMeY25; C-terminal amide (NH2)
B13: (D-Tyr)-Aib-EGTFTSDYSI-αMeL-LDKK((2-[2-(2-Amino-ethoxy)-ethoxy]-acetyl)2-(γ-Glu)-CO-(CH2)18-CO2H)AQ-Aib-EFIE-αMeY-LIEGGPSSGAPPPS-NH2 (peptide)
peptide: B2 peptide with Y1X, A28E
modifications: D-Tyr1; Aib2; αMeL13; K17 conjugated to (2-[2-(2-Amino-ethoxy)-ethoxy]-acetyl)2-(γ-Glu)-CO-(CH2)18-CO2H; Aib20; αMeY25; C-terminal amide (NH2)
B14: (D-Tyr)-Aib-EGTFTSDYSI-αMeL-LD-Orn-K((2-[2-(2-Amino-ethoxy)-ethoxy]-acetyl)2-(γ-Glu)-CO-(CH2)16-CO2H)AQ-Aib-EFIEYLIAGGPSSGAPPPS-NH2 (peptide)
peptide: B2 peptide with Y1X, K16X, X25Y
modifications: D-Tyr1; Aib2; αMeL13; Orn16; K17 conjugated to (2-[2-(2-Amino-ethoxy)-ethoxy]-acetyl)2-(γ-Glu)-CO-(CH2)16-CO2H; Aib20; C-terminal amide (NH2)

Experiments:
Assay in all cases: cell-based or functional assay
[1] = biological target: T1, human GLP-1 receptor (GLP-1R) (human), …
[2] = biological target: T2, human gastric inhibitory peptide …
[3] = biological target: T3, human gastric inhibitory peptide …
[4] = biological target: human GLP-1 receptor (GLP-1R) (human, UniProt P43220 24-463)

Binder	hGLP1R cAMP EC50 ratio [1]	hGLP1R cAMP Rel EC50 [1] [nM]	hGIPR cAMP EC50 ratio [2]	hGIPR cAMP Rel EC50 [2] [nM]	hGIPR cAMP EC50 ratio [3]	hGLP1R cAMP EC50 ratio [4]
Y[Aib]EGT[αMePhe(2-F)]TSDHSI[αMeL]LDEK([AEEA-AEEA-γGlu-C18 diacid])AQ[Aib]HFI[dE]YLIEGG-NH2 (not fully specified) [Example 180]	0.0212	2.16	0.133	0.79		
Y[Aib]EGT[αMePhe(2-F)]TSDHSI[αMeL]LDEK([AEEA-AEEA-γGlu-C18 diacid])AQ[Aib]HFI[dE]YLIEGGPSSG-NH2 (not fully specified) [Example 179]	0.0169	2.7	0.0575	1.83		
B1					0.704	0.172
B2					5.85	0.386
B3					0.499	0.319
B4					0.374	0.115
B5					0.793	0.142
B6					0.976	0.199
B7					0.393	0.206
B8					0.68	0.0741
B9					1.76	0.169
B10					0.734	0.159
B11					1.13	0.178
B12					0.287	0.0621
B13					0.672	0.114
B14					0.109	0.299
